± gives the standard deviation of the averaged measurements.
The sequences below were run on ATP (assay: switch fluorescence ratio, 500 uM ATP over buffer (Cy3 cluster intensity, sum of 5 cycles each) (fold (ratio)); higher = stronger signal-on switching upon ATP binding; sequences stand for … in TCGTCGGCAGCGTCAGATGTGTATAAGAGACAGTTTTTTTTTTTTTTTTTTTTTTTTT…TC). Conditions: aptamer strand: ATP DNA aptamer (quencher-CACCTGGGGGAGTATTGCGGAGGAAGG + anchor), 100 nM annealed; ATP concentration: 500 uM.
Summary of the method: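 Between each of five buffer/ATP cycles, the flow-cell was stripped with NaOH and re-annealed. Each cycle imaged Cy3-labelled switching-strand clusters, annealed to 100 nM quencher-labelled ATP aptamer on a modified Illumina MiSeq flow-cell, first in selection buffer and then after 15 min with 500 uM ATP at 22 °C. The fluorescence ratio is summed target-cycle over summed buffer-cycle Cy3 intensity per cluster, averaged per switch-domain sequence, with clusters outside 100-1000 RFU excluded.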
GAATGTCGGG showed a switch fluorescence ratio of 0.97965 ± 8.2e-05. In the case of GAATTAAGCT, the switch fluorescence ratio is reported as 1 ± 0.015. For GAATTAATGG, the switch fluorescence ratio was 1.02 ± 0.07. With GAATTAATTT the switch fluorescence ratio was 1 ± 0.04. Sequence GAATTAGTTA has a switch fluorescence ratio of 1.01 ± 0.02. GAATTATTGG gave a switch fluorescence ratio of 0.975 ± 0.022. GAATTCAAGG was tested, and the switch fluorescence ratio was 1.01 ± 0.082. Work on GAATTCCGTA yielded a switch fluorescence ratio of 1.03 ± 0.042. GAATTCGGGA was tested, and the switch fluorescence ratio was 1 ± 0.013. With GAATTCTATG the switch fluorescence ratio was 0.997 ± 0.042. For GAATTCTTGA, the switch fluorescence ratio was 0.9532 ± 0.0043. For GAATTGATTT, the switch fluorescence ratio was 1.009 ± 0.0065. GAATTGGGTA gave a switch fluorescence ratio of 0.957 ± 0.014. GAATTGTACC showed a switch fluorescence ratio of 1.03 ± 0.028. With GAATTGTTAG the switch fluorescence ratio was 0.972 ± 0.028. GAATTTAAAG was tested, and the switch fluorescence ratio was 1.007 ± 0.0018. In the case of GAATTTCGGT, the switch fluorescence ratio is reported as 1.053 ± 0.0077. For GAATTTGGGT, the switch fluorescence ratio was 0.98 ± 0.034. GAATTTTGTA showed a switch fluorescence ratio of 0.984 ± 0.041. Work on GACAAAGGAC yielded a switch fluorescence ratio of 1.47 ± 0.09. In the case of GACAAAGGAT, the switch fluorescence ratio is reported as 1.04 ± 0.025. Work on GACAACAAGG yielded a switch fluorescence ratio of 1.047 ± 0.0089. GACAAGGAGG showed a switch fluorescence ratio of 1.02 ± 0.028. GACAAGTATT gave a switch fluorescence ratio of 1.01 ± 0.013. GACAATTAGT gave a switch fluorescence ratio of 1.04 ± 0.0079. For GACACTAAGG, the switch fluorescence ratio was 1.01 ± 0.038. For GACACTTAGG, the switch fluorescence ratio was 1.05 ± 0.017. GACACTTGTA showed a switch fluorescence ratio of 1.02 ± 0.025. GACAGCGGGG showed a switch fluorescence ratio of 0.999 ± 0.036. For GACAGGGATC, the switch fluorescence ratio was 2.1 ± 1.6. Sequence GACAGGGGCT has a switch fluorescence ratio of 1.06 ± 0.022. For GACAGGGGGG, the switch fluorescence ratio was 1.01 ± 0.085. GACAGGTGAA showed a switch fluorescence ratio of 2.27 ± 0.041. With GACAGGTTAG the switch fluorescence ratio was 0.9809 ± 0.0069. GACAGGTTGA showed a switch fluorescence ratio of 0.993 ± 0.036. GACAGTTAGC showed a switch fluorescence ratio of 1.03 ± 0.013. GACATAAGCA gave a switch fluorescence ratio of 1.03 ± 0.017. With GACATAGGGT the switch fluorescence ratio was 0.994 ± 0.025. With GACATAGTGG the switch fluorescence ratio was 1.006 ± 0.0012. GACATGAGGG showed a switch fluorescence ratio of 1 ± 0.071. Work on GACATGGGGC yielded a switch fluorescence ratio of 1.04 ± 0.058. GACATGGTTA was tested, and the switch fluorescence ratio was 1.02 ± 0.051. Sequence GACATTATAT has a switch fluorescence ratio of 1.028 ± 0.0025. Sequence GACATTATGC has a switch fluorescence ratio of 1.03 ± 0.014. With GACATTCACT the switch fluorescence ratio was 1.108 ± 0.0088. GACATTGTTG was tested, and the switch fluorescence ratio was 1.04 ± 0.055. In the case of GACATTTTGG, the switch fluorescence ratio is reported as 1.03 ± 0.042. In the case of GACCAACAGT, the switch fluorescence ratio is reported as 1.03 ± 0.021. GACCATCTGT was tested, and the switch fluorescence ratio was 1.02 ± 0.024. Sequence GACCCGGCTA has a switch fluorescence ratio of 1.04 ± 0.018. GACCGAGGGG gave a switch fluorescence ratio of 0.989 ± 0.026. Work on GACCTAGTGT yielded a switch fluorescence ratio of 1.03 ± 0.019. Work on GACCTGTTTG yielded a switch fluorescence ratio of 0.987 ± 0.017. GACCTTTATA was tested, and the switch fluorescence ratio was 0.9914 ± 0.0062. GACGAAAAGG was tested, and the switch fluorescence ratio was 1.75 ± 1.1. GACGAAAGGC was tested, and the switch fluorescence ratio was 1.05 ± 0.02. With GACGAAATTG the switch fluorescence ratio was 0.99836 ± 0.0003. GACGAAGATC gave a switch fluorescence ratio of 1.11 ± 0.016. Work on GACGAAGCGG yielded a switch fluorescence ratio of 2.41 ± 0.047. GACGAGGGAT showed a switch fluorescence ratio of 1.1 ± 0.034. With GACGAGGGGG the switch fluorescence ratio was 0.949 ± 0.11. In the case of GACGATGTAA, the switch fluorescence ratio is reported as 1.18 ± 0.018. GACGCATGGT gave a switch fluorescence ratio of 2.37 ± 0.15. GACGCCTAGT was tested, and the switch fluorescence ratio was 1.036 ± 0.0021. GACGCGGATG gave a switch fluorescence ratio of 1.04 ± 0.02. In the case of GACGCGGCGT, the switch fluorescence ratio is reported as 1.02 ± 0.029. With GACGCGGGTC the switch fluorescence ratio was 1.13 ± 0.026. GACGCGTCTC was tested, and the switch fluorescence ratio was 1.033 ± 0.0057. With GACGCTCATG the switch fluorescence ratio was 1.04 ± 0.033. GACGCTTCG showed a switch fluorescence ratio of 0.931 ± 0.017. GACGGACAGG gave a switch fluorescence ratio of 1.06 ± 0.024. For GACGGACAGT, the switch fluorescence ratio was 1.13 ± 0.076. Sequence GACGGAGAGA has a switch fluorescence ratio of 1.23 ± 0.029. GACGGGATCT showed a switch fluorescence ratio of 1.042 ± 0.0092. GACGGGATTG showed a switch fluorescence ratio of 1.015 ± 0.006. GACGGGCACA gave a switch fluorescence ratio of 1.13 ± 0.028. For GACGGGGACC, the switch fluorescence ratio was 1.06 ± 0.063. GACGGGGATG was tested, and the switch fluorescence ratio was 1.03 ± 0.012. Work on GACGGGGGTG yielded a switch fluorescence ratio of 1.01 ± 0.023. With GACGGGGTGG the switch fluorescence ratio was 1.01 ± 0.059. GACGGGTCTC gave a switch fluorescence ratio of 1.001 ± 0.0098. GACGGTAGAG showed a switch fluorescence ratio of 1.03 ± 0.02. Work on GACGGTTTTT yielded a switch fluorescence ratio of 1.01 ± 0.024. GACGTAGAGC showed a switch fluorescence ratio of 1.08 ± 0.026. Sequence GACGTATAG has a switch fluorescence ratio of 0.994 ± 0.022. GACGTATTTT was tested, and the switch fluorescence ratio was 0.9993 ± 0.0013. In the case of GACGTCAGAT, the switch fluorescence ratio is reported as 0.9767 ± 0.0018. GACGTCCCAG gave a switch fluorescence ratio of 0.966 ± 0.061. In the case of GACGTCTGGG, the switch fluorescence ratio is reported as 0.986 ± 0.013. GACGTGCGAC showed a switch fluorescence ratio of 1.29 ± 0.079. GACGTTAATA gave a switch fluorescence ratio of 1.41 ± 0.04. For GACGTTACCA, the switch fluorescence ratio was 1.61 ± 0.063. GACGTTATGG showed a switch fluorescence ratio of 1.04 ± 0.016. GACGTTCTTG showed a switch fluorescence ratio of 0.9862 ± 0.0027. GACGTTTCTG gave a switch fluorescence ratio of 1.01 ± 0.098. In the case of GACGTTTTCC, the switch fluorescence ratio is reported as 0.995 ± 0.097. GACGTTTTTG gave a switch fluorescence ratio of 0.996 ± 0.011. With GACTACGTTT the switch fluorescence ratio was 1.02 ± 0.013. GACTAGTGAA was tested, and the switch fluorescence ratio was 0.9906 ± 0.0079. GACTAGTTGG showed a switch fluorescence ratio of 0.983 ± 0.025.
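Further: ATP exposure 15 min at 22 °C before imaging.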
